This assay concerns the target F-actin (rabbit skeletal muscle actin, ADP-actin filaments) (rabbit, UniProt P68135 1-377). As to the kind of experiment: co-sedimentation; dilution series of ABD mixed with an equal volume of 4 μM F-actin, 30 min at room temperature, 20 mM HEPES pH 8.0, 150 mM NaCl, 1 mM DTT; pelleted at 140,717 x g for 20 min at 4°C; Coomassie bands quantified; fit with a Hill coefficient (W859A: one site-specific binding). As to conditions: both partners purified.

Numbering of substitutions follows the chain as printed. Names and notes keep the numbering of the source.

As a reminder, the Kd is the concentration at which binding is half-saturated.

B1: αE-catenin ABD 699–868 (domain or fragment)
chain: DAEVSKWDDSGNDIIVLAKQMCMIMMEMTDFTRGKGPLKNTSDVISAAKKIAEAGSRMDKLGRTIADHCPDSACKQDLLAYLQRIALYCHQLNICSKVKAEVQNLGGELVVSGVDSAMSLIQAAKNLMNAVVQTVKASYVASTKYQKSQGMASLNLPAVSWKMKAPEKKP
As for B1, the Kd is 2800 nM.

B2: αE-catenin ABD 666–906 (full length) (domain or fragment)
chain: GQSARAIMAQLPQEQKAKIAEQVASFQEEKSKLDAEVSKWDDSGNDIIVLAKQMCMIMMEMTDFTRGKGPLKNTSDVISAAKKIAEAGSRMDKLGRTIADHCPDSACKQDLLAYLQRIALYCHQLNICSKVKAEVQNLGGELVVSGVDSAMSLIQAAKNLMNAVVQTVKASYVASTKYQKSQGMASLNLPAVSWKMKAPEKKPLVKREKQDETQTKIKRASQKKHVNPVQALSEFKAMDSI
B2 registered a Kd of 8500 nM. This Kd lies about 3-fold higher than the previous one.

B3: αE-catenin ABD 696–906 (domain or fragment)
chain: SKLDAEVSKWDDSGNDIIVLAKQMCMIMMEMTDFTRGKGPLKNTSDVISAAKKIAEAGSRMDKLGRTIADHCPDSACKQDLLAYLQRIALYCHQLNICSKVKAEVQNLGGELVVSGVDSAMSLIQAAKNLMNAVVQTVKASYVASTKYQKSQGMASLNLPAVSWKMKAPEKKPLVKREKQDETQTKIKRASQKKHVNPVQALSEFKAMDSI
In the case of B3, the Kd was found to be 400 nM.

B4: αE-catenin ABD 671–872 (domain or fragment)
chain: AIMAQLPQEQKAKIAEQVASFQEEKSKLDAEVSKWDDSGNDIIVLAKQMCMIMMEMTDFTRGKGPLKNTSDVISAAKKIAEAGSRMDKLGRTIADHCPDSACKQDLLAYLQRIALYCHQLNICSKVKAEVQNLGGELVVSGVDSAMSLIQAAKNLMNAVVQTVKASYVASTKYQKSQGMASLNLPAVSWKMKAPEKKPLVKR
For the molecule B4, the Kd is 5000 nM. Against the preceding molecule, the Kd is about 12-fold higher.

B5: αE-catenin ABD 699–906 (domain or fragment)
chain: DAEVSKWDDSGNDIIVLAKQMCMIMMEMTDFTRGKGPLKNTSDVISAAKKIAEAGSRMDKLGRTIADHCPDSACKQDLLAYLQRIALYCHQLNICSKVKAEVQNLGGELVVSGVDSAMSLIQAAKNLMNAVVQTVKASYVASTKYQKSQGMASLNLPAVSWKMKAPEKKPLVKREKQDETQTKIKRASQKKHVNPVQALSEFKAMDSI
The molecule B5 gave a Kd of 500 nM. Compared with the last molecule, the Kd is about 10-fold lower.

B6: αE-catenin ABD 692–906 (domain or fragment)
chain: QEEKSKLDAEVSKWDDSGNDIIVLAKQMCMIMMEMTDFTRGKGPLKNTSDVISAAKKIAEAGSRMDKLGRTIADHCPDSACKQDLLAYLQRIALYCHQLNICSKVKAEVQNLGGELVVSGVDSAMSLIQAAKNLMNAVVQTVKASYVASTKYQKSQGMASLNLPAVSWKMKAPEKKPLVKREKQDETQTKIKRASQKKHVNPVQALSEFKAMDSI
The molecule B6 returned a Kd of 700 nM.

B7: αE-catenin ABD 671–906 (domain or fragment)
chain: AIMAQLPQEQKAKIAEQVASFQEEKSKLDAEVSKWDDSGNDIIVLAKQMCMIMMEMTDFTRGKGPLKNTSDVISAAKKIAEAGSRMDKLGRTIADHCPDSACKQDLLAYLQRIALYCHQLNICSKVKAEVQNLGGELVVSGVDSAMSLIQAAKNLMNAVVQTVKASYVASTKYQKSQGMASLNLPAVSWKMKAPEKKPLVKREKQDETQTKIKRASQKKHVNPVQALSEFKAMDSI
B7: the Kd worked out at 2000 nM.

B8: αE-catenin ABD 671–906 W859A (domain or fragment)
chain: B7 chain with W189A
B8 showed an equilibrium dissociation constant (Kd) of more than 35000 nM.

(Values after publication PMC7588230, “Structural basis of αE-catenin–F-actin catch bond behavior” (eLife, 2020).)
